Tests used:
[1] = molecular target: hemagglutinin of avian influenza virus H1N1 (avian influenza virus H1N1); assay: ELISA
[2] = molecular target: hemagglutinin of avian influenza virus H5N1 (avian influenza virus H5N1); assay: ELISA
hemagglutinin of avian influenza virus H5N1 (avian influenza virus H5N1), sequence (Q9Q0U6 17-568): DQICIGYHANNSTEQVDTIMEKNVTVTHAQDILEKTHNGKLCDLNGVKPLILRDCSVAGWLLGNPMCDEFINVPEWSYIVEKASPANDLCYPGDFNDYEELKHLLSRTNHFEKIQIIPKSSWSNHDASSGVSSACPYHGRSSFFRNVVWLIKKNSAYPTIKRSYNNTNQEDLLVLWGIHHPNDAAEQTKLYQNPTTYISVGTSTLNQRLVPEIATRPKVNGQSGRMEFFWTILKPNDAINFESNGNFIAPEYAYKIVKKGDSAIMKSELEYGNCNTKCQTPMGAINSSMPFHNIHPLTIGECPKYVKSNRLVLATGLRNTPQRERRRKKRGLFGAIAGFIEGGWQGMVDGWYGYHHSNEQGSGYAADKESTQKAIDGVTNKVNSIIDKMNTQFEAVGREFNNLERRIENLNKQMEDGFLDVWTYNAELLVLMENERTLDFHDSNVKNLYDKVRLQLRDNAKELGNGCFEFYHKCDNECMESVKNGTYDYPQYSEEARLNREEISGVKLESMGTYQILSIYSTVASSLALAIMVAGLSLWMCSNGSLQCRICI

“Desialylated ovomucin (from UniProt Q98UI9;F1NBL0) (complex)” gave a percent decrease of binding capacity against natural OVM [1] of 64.2% and a percent decrease of binding capacity against natural OVM [2] of 71.5%.
